The values below come from US20240360477.

In the series the test system is MCP-TGIRT (GsI-IIC RT) fusion. Description: cell_activity. The settings on record: control used for normalization, HEK293T.

“nanoluciferase mRNA with MS2 loops hybridized to DNA primer”: the activity (relative to TGIRT) worked out at 1.
